# Columns and labels:
# [1] = biological target: HIV-1 Env of strain 1006_11_C3_1601 (HIV-1)
# [2] = biological target: HIV-1 Env of strain X2131_C1_B5 (HIV-1)
# [3] = biological target: HIV-1 Env of strain 3415.v1.c1 (HIV-1)
# [4] = biological target: HIV-1 Env of strain P1981_C5_3 (HIV-1)
# [5] = biological target: HIV-1 Env of strain 231965.c01 (HIV-1)
# [6] = biological target: HIV-1 Env of strain CNE30 (HIV-1)
# [7] = biological target: HIV-1 Env of strain Ce703010054_2A2 (HIV-1)
# [8] = biological target: HIV-1 Env of strain CAAN5342.A2 (HIV-1)
# [9] = biological target: HIV-1 Env of strain CNE53 (HIV-1)
# [10] = biological target: HIV-1 Env of strain RHPA4259.7 (HIV-1)
# [11] = biological target: HIV-1 Env of strain R1166.c01 (HIV-1)
# [12] = biological target: HIV-1 Env of strain ZM197M.PB7 (HIV-1)
# [13] = biological target: HIV-1 Env of strain ZM109F.PB4 (HIV-1)
# [14] = biological target: HIV-1 Env of strain 0330.v4.c3 (HIV-1)
# [15] = biological target: HIV-1 Env of strain Du156.12 (HIV-1)
# [16] = biological target: HIV-1 Env of strain T250-4 (HIV-1)
# [17] = biological target: HIV-1 Env of strain 0815.v3.c3 (HIV-1)
# [18] = biological target: HIV-1 Env of strain CAP210.2.00.E8 (HIV-1)
# [19] = biological target: HIV-1 Env of strain 928-28 (HIV-1)
# [20] = biological target: HIV-1 Env of strain 211-9 (HIV-1)
# [21] = biological target: HIV-1 Env of strain Q259.d2.17 (HIV-1)
# [22] = biological target: HIV-1 Env of strain C3347.c11 (HIV-1)
# [23] = biological target: HIV-1 Env of strain Q461.e2 (HIV-1)
# [24] = biological target: HIV-1 Env of strain 6811.v7.c18 (HIV-1)
# [25] = biological target: HIV-1 Env of strain CNE17 (HIV-1)
# [26] = biological target: HIV-1 Env of strain 3301.v1.c24 (HIV-1)
# [27] = biological target: HIV-1 Env of strain THRO4156.18 (HIV-1)
# [28] = biological target: HIV-1 Env of strain 620345.c01 (HIV-1)
# [29] = biological target: HIV-1 Env of strain ZM135M.PL10a (HIV-1)
# [30] = biological target: HIV-1 Env of strain Ce2010_F5 (HIV-1)
# [31] = biological target: HIV-1 Env of strain Q23.17 (HIV-1)
# [32] = biological target: HIV-1 Env of strain ZM53M.PB12 (HIV-1)
# [33] = biological target: HIV-1 Env of strain Du422.1 (HIV-1)
# [34] = biological target: HIV-1 Env of strain ZM233M.PB6 (HIV-1)
# [35] = biological target: HIV-1 Env of strain C2101.c01 (HIV-1)
# [36] = biological target: HIV-1 Env of strain 3103.v3.c10 (HIV-1)
# [37] = biological target: HIV-1 Env of strain Du172.17 (HIV-1)
# [38] = biological target: HIV-1 Env of strain T251-18 (HIV-1)
# [39] = biological target: HIV-1 Env of strain WITO4160.33 (HIV-1)
# [40] = biological target: HIV-1 Env of strain ZM247v1(Rev-) (HIV-1)
# [41] = biological target: HIV-1 Env of strain SC422661.8 (HIV-1)
# [42] = biological target: HIV-1 Env of strain 6545.v4.c1 (HIV-1)
# [43] = biological target: HIV-1 Env of strain CNE20 (HIV-1)
# [44] = biological target: HIV-1 Env of strain CNE21 (HIV-1)
# [45] = biological target: HIV-1 Env of strain 6540.v4.c1 (HIV-1)
# [46] = biological target: HIV-1 Env of strain Ce0393_C3 (HIV-1)
# [47] = biological target: HIV-1 Env of strain REJO4541.67 (HIV-1)
# [48] = biological target: HIV-1 Env of strain 703357.C02 (HIV-1)
# [49] = biological target: HIV-1 Env of strain AC10.0.29 (HIV-1)
# [50] = biological target: HIV-1 Env of strain Ce1176_A3 (HIV-1)
# [51] = biological target: HIV-1 Env of strain TRJO4551.58 (HIV-1)
# [52] = biological target: HIV-1 Env of strain Ce2060_G9 (HIV-1)
# [53] = biological target: HIV-1 Env of strain 231966.c02 (HIV-1)
# [54] = biological target: HIV-1 Env of strain WEAU_d15_410_787 (HIV-1)
# [55] = biological target: HIV-1 Env of strain 62357_14_D3_4589 (HIV-1)
# [56] = biological target: HIV-1 Env of strain 1054_07_TC4_1499 (HIV-1)
# [57] = biological target: HIV-1 Env of strain Q769.d22 (HIV-1)
substance,measurement,setting,value
NIH45-46 G54F IgG (antibody),In vitro neutralization IC80,[1],0.024 µg/mL
same,In vitro neutralization IC80,[2],0.41 µg/mL
same,In vitro neutralization IC80,[3],0.029 µg/mL
same,In vitro neutralization IC80,[4],0.11 µg/mL
same,In vitro neutralization IC80,[5],0.062 µg/mL
same,In vitro neutralization IC80,[6],0.348 µg/mL
same,In vitro neutralization IC80,[7],0.07 µg/mL
same,In vitro neutralization IC80,[8],0.28 µg/mL
same,In vitro neutralization IC80,[9],0.024 µg/mL
same,In vitro neutralization IC80,[10],0.02 µg/mL
same,In vitro neutralization IC80,[11],1.32 µg/mL
same,In vitro neutralization IC80,[12],0.23 µg/mL
same,In vitro neutralization IC80,[13],0.17 µg/mL
same,In vitro neutralization IC80,[14],0.13 µg/mL
same,In vitro neutralization IC80,[15],0.019 µg/mL
same,In vitro neutralization IC80,[16],> 50 µg/mL
same,In vitro neutralization IC80,[17],0.014 µg/mL
same,In vitro neutralization IC80,[18],> 50 µg/mL
same,In vitro neutralization IC80,[19],0.41 µg/mL
same,In vitro neutralization IC80,[20],> 50 µg/mL
same,In vitro neutralization IC80,[21],0.036 µg/mL
same,In vitro neutralization IC80,[22],0.059 µg/mL
same,In vitro neutralization IC80,[23],0.135 µg/mL
same,In vitro neutralization IC80,[24],0.063 µg/mL
same,In vitro neutralization IC80,[25],0.287 µg/mL
same,In vitro neutralization IC80,[26],0.011 µg/mL
same,In vitro neutralization IC80,[27],3.01 µg/mL
same,In vitro neutralization IC80,[28],> 50 µg/mL
same,In vitro neutralization IC80,[29],0.43 µg/mL
same,In vitro neutralization IC80,[30],0.186 µg/mL
same,In vitro neutralization IC80,[31],0.07 µg/mL
same,In vitro neutralization IC80,[32],0.23 µg/mL
same,In vitro neutralization IC80,[33],> 50 µg/mL
same,In vitro neutralization IC80,[34],0.99 µg/mL
same,In vitro neutralization IC80,[35],0.42 µg/mL
same,In vitro neutralization IC80,[36],1.28 µg/mL
same,In vitro neutralization IC80,[37],> 50 µg/mL
same,In vitro neutralization IC80,[38],1.38 µg/mL
same,In vitro neutralization IC80,[39],0.14 µg/mL
same,In vitro neutralization IC80,[40],2.45 µg/mL
same,In vitro neutralization IC80,[41],0.1 µg/mL
same,In vitro neutralization IC80,[42],> 50 µg/mL
same,In vitro neutralization IC80,[43],3.91 µg/mL
same,In vitro neutralization IC80,[44],0.66 µg/mL
same,In vitro neutralization IC80,[45],> 50 µg/mL
same,In vitro neutralization IC80,[46],0.173 µg/mL
same,In vitro neutralization IC80,[47],0.028 µg/mL
same,In vitro neutralization IC80,[48],> 50 µg/mL
same,In vitro neutralization IC80,[49],1.12 µg/mL
same,In vitro neutralization IC80,[50],0.83 µg/mL
same,In vitro neutralization IC80,[51],0.08 µg/mL
same,In vitro neutralization IC80,[52],0.085 µg/mL
same,In vitro neutralization IC80,[53],0.24 µg/mL
same,In vitro neutralization IC80,[54],0.004 µg/mL
same,In vitro neutralization IC80,[55],0.14 µg/mL
same,In vitro neutralization IC80,[56],0.283 µg/mL
same,In vitro neutralization IC80,[57],0.023 µg/mL
NIH45-46 G54W IgG (antibody),In vitro neutralization IC80,[1],0.008 µg/mL
same,In vitro neutralization IC80,[2],0.24 µg/mL
same,In vitro neutralization IC80,[3],0.023 µg/mL
same,In vitro neutralization IC80,[4],0.07 µg/mL
same,In vitro neutralization IC80,[5],0.035 µg/mL
same,In vitro neutralization IC80,[6],0.196 µg/mL
same,In vitro neutralization IC80,[7],0.077 µg/mL
same,In vitro neutralization IC80,[8],0.21 µg/mL
same,In vitro neutralization IC80,[9],0.005 µg/mL
same,In vitro neutralization IC80,[10],0.007 µg/mL
same,In vitro neutralization IC80,[11],0.51 µg/mL
same,In vitro neutralization IC80,[12],0.18 µg/mL
same,In vitro neutralization IC80,[13],0.07 µg/mL
same,In vitro neutralization IC80,[14],0.11 µg/mL
same,In vitro neutralization IC80,[15],0.005 µg/mL
same,In vitro neutralization IC80,[16],44.9 µg/mL
same,In vitro neutralization IC80,[17],0.003 µg/mL
same,In vitro neutralization IC80,[18],> 50 µg/mL
same,In vitro neutralization IC80,[19],0.25 µg/mL
same,In vitro neutralization IC80,[20],> 50 µg/mL
same,In vitro neutralization IC80,[21],0.014 µg/mL
same,In vitro neutralization IC80,[22],0.028 µg/mL
same,In vitro neutralization IC80,[23],0.091 µg/mL
same,In vitro neutralization IC80,[24],0.033 µg/mL
same,In vitro neutralization IC80,[25],0.127 µg/mL
same,In vitro neutralization IC80,[26],0.004 µg/mL
same,In vitro neutralization IC80,[27],1.81 µg/mL
same,In vitro neutralization IC80,[28],> 50 µg/mL
same,In vitro neutralization IC80,[29],0.16 µg/mL
same,In vitro neutralization IC80,[30],0.187 µg/mL
same,In vitro neutralization IC80,[31],0.03 µg/mL
same,In vitro neutralization IC80,[32],0.16 µg/mL
same,In vitro neutralization IC80,[33],> 50 µg/mL
same,In vitro neutralization IC80,[34],0.11 µg/mL
same,In vitro neutralization IC80,[35],0.17 µg/mL
same,In vitro neutralization IC80,[36],0.56 µg/mL
same,In vitro neutralization IC80,[37],42.9 µg/mL
same,In vitro neutralization IC80,[38],0.92 µg/mL
same,In vitro neutralization IC80,[39],0.04 µg/mL
same,In vitro neutralization IC80,[40],2.6 µg/mL
same,In vitro neutralization IC80,[41],0.07 µg/mL
same,In vitro neutralization IC80,[42],> 50 µg/mL
same,In vitro neutralization IC80,[43],0.48 µg/mL
same,In vitro neutralization IC80,[44],0.16 µg/mL
same,In vitro neutralization IC80,[45],> 50 µg/mL
same,In vitro neutralization IC80,[46],0.089 µg/mL
same,In vitro neutralization IC80,[47],0.013 µg/mL
same,In vitro neutralization IC80,[48],17.6 µg/mL
same,In vitro neutralization IC80,[49],0.63 µg/mL
same,In vitro neutralization IC80,[50],0.45 µg/mL
same,In vitro neutralization IC80,[51],0.05 µg/mL
same,In vitro neutralization IC80,[52],0.042 µg/mL
same,In vitro neutralization IC80,[53],0.11 µg/mL
same,In vitro neutralization IC80,[54],0.003 µg/mL
same,In vitro neutralization IC80,[55],0.07 µg/mL
same,In vitro neutralization IC80,[56],0.165 µg/mL
same,In vitro neutralization IC80,[57],0.009 µg/mL

# Source: patent US20200165325A1
